According to patent publication US20260078416A1, “ORTHOGONAL METABOLIC FRAMEWORK FOR ONE-CARBON UTILIZATION” (Mojia Biotech Pte. Ltd., priority 2021, published 2026):

B1: JGI20: HACS variant; GenBank PWB41796.1 (protein)
chain: MGQITGAQIVARALKQQGVEYMFGIVGIPVIPIAMFAQREGIKFYGFRNEQSASYAAAAVGYLTGRPGVCLGVSGPGMIHGVAGMANAWSNCWPMILIGGANDSYQNGQGAFQEAPQIEAARPFAKYCARPDSLARLPFYVEQAVRTSIYGRPGAVYLDLPGDIITGAMEEEDVHFPPRCPDAPRMMAPQESIDAAMAALKSAERPLVIVGKGAAYSRAENEVREFLETTQLPYLASPMGKGVMPDDHPLSIAPARSAALLGADVILLMGARLNWMMHFGHPPRFDPKVRVIQMDISAEEIGTNVPTEVALVGDAKAITTQLNASLKQQPWQYPSETTWWTGLRKKIDENGATVAEMMADESVPMSYYRVYREIRDLIPNDAIIQNEGASTMDIGRTLMPNFLPRHRLDAGSFGTMGVGLGQAIAAAAVHPDKHVFCIEGDSAFGFSGMEVETAARYGMKNITFIIINNNGIGGGPDTLDPTRVPPSAYTPNAHYEKMAEIYGGKGYFVTEPSQLRPALEEAIKADKPAIVNIMISATSQRKPQQFAWLTR
B2: JGI15: HACS variant; GenBank HAK63664.1 (protein)
chain: MAKSEGKVNGATLMARALQQQGVQYMFGIVGFPVIPIAIAAQREGITYIGMRNEQSASYAAQAASYLTGRPQACLVVSGPGVVHALAGLANAQVNCWPMLLIGGASAIEQNGMGAFQEERQVLLASPLCKYAHQVERPERIPYYVEQAVRSALFGRPGAAYLDMPDDVILGEVEEAAVRPAATVGEPPRSLAPQENIEAALDALQSAKRPLVIVGKGMAWSRAENEVRQFIERTRLPFLATPMGKGVMPDDHPLSVGGARSHALQEADLVFLLGARFNWILHFGLPPRYSKDVRVIQLDLSAEEIGNNRQAEVALVGDGKAIVGQLNQALSSRQWFYPAETPWREAIAAKIAGNQAAVAPMIADNTSPMNYYRVYRDIAARLPRNAIIVGEGANTMDIGRTQMPNFEPRSRLDAGSYGTMGIGLGFAVAAAAVHPGRPVIAVQGDSAFGFSGMEFETAARYGMPIKVIILNNGGIGMGSPAPRDGQPGMPHALSHDARYERIAEAFGGAGFYVTDSAELGPALDAAMAFKGPAIVNIKIAATADRKPQQFNWHG

Experiments:
[1] = tested on: 2,4-dihydroxybutyric acid production from 3-hydroxypropionaldehyde and formate; assay: HACS screening with 3-hydroxypropionaldehyde and formate (DHB productivity); type: cell-based, E. coli; details: 5 mM 3HP and 20 mM formate, first round
From the text: We used 2-hydroxyacid productivity per cell density (μM/OD600) as indicator of HACS activity. 2-Hydroxyacids can be produced co-feeding various aldehydes and formic acid (formate) as carbon source in the presence of active HACS variant and acyl-CoA transferase from Clostridium aminobutyricum (CaAbfT). CaAbfT is shown to be capable of catalyzing reaction from formate to formyl-CoA (Nattermann, M., et al. ACS Catal 11 (9): 5396-5404 (2021)). HACS condenses aldehyde and formyl-CoA to form 2-hydroxyacyl-CoA, which can then be hydrolyzed to 2-hydroxyacid via native thioesterase activities (FIG. 31A).
For the in vivo prototyping, we engineered vectors to independently control expression of HACS variants and CaAbfT, with HACS under control of the IPTG-inducible T7 promoter in pCDFDuet-1 and CaAbfT under control of a cumate-inducible T5 promoter in pETDuet-1 (FIG. 31B) and transformed them into the engineered strain of E. coli described in EXAMPLE 3.
The HACS variants were screened for 2-hydroxyacid production using the high throughput screening platform as described in EXAMPLE 3 by co-feeding 5 mM aldehyde and 20 mM formate. The cells were harvested after 1 hour by centrifugation and the supernatant analyzed by HPLC (as described in EXAMPLE 2) or SoGO method.
We used 2,4-dihydroxybutyric acid (DHB) productivity per cell density (uM DHB/OD600) as indicator of HACS activity. […]

[2] = In vitro kinetic assay of purified HACS variants; substrate acetone; type: biochemical
Procedure: The kinetic assay was performed with a coupled reaction providing formyl-CoA from formate catalyzed by CoA transferase CaAbfT using acetyl-CoA as a CoA donor.
In vitro kinetic assay was comprised of 100 mM KPi pH 6.9, 10 mM MgCl2, 0.15 mM TPP, 2 mM acetyl-CoA, 1 μM CaAbfT, 0.25 μM HACS variants, and 20 mM sodium formate. Reactions were incubated at room temperature for 3 min to convert formate to formyl-CoA, and then specific concentration of aldehyde (specifically acetaldehyde or propionaldehyde here) was added to the reaction. After incubating another 3 min, 1/20 of the reaction volume of 10 M NaOH solution was added to terminate the reactions. After 30 min hydrolysis, 1/20 of the reaction volume of 10 N H2SO4 was added to neutralize the pH. Samples were centrifuged at 20817×g for 15 minutes and the supernatant analyzed by GC-MS as described below.
For this analysis, 0.15 of the reaction volume of internal standard methyl succinate was added to the samples. The resulting sample was extracted into 4 mL ethyl acetate by vigorous vortexing for 20 min. […] Samples were analyzed by GC (1 μL injection with a 20:1 split ratio) using helium as the carrier gas at a flowrate of 1.5 mL/min and the following temperature profile: initial 90° C. for 3 min; ramp at 15° C./min to 170° C.; ramp at 20° C./min to 300° C. and hold for 8 min. […]

[3] = In vitro condensation of methyl ketones with formyl-CoA using purified enzymes; type: biochemical; details: 100 mM methyl ketone, 20 mM formate, 30° C., 24 hours, GC-MS
Procedure: The formyl-CoA generation catalyzed by CoA transferase CaAbfT and condensation catalyzed by HACS JGI15 is identical to the examples described above (FIG. 38A).
The enzymes CoA transferase CaAbfT and HACS JG115 were overexpressed and purified as described above. In vitro purified enzyme reactions for condensation of methyl ketone and formyl-CoA were comprised of 100 mM KPi pH 6.9, 10 mM MgCl2, 0.15 mM TPP, 2 mM acetyl-CoA, 1 μM JGI15, 2 μM CaAbfT, 20 mM formate and 100 mM tested methyl ketones. Reactions were incubated at 30° C. for 24 hours unless otherwise specified.
For this analysis, samples containing acyl-CoAs were first treated with 1/20 of the reaction volume of 10 M NaOH solution was added to terminate the reactions. After 30 min hydrolysis, 1/20 of the reaction volume of 10 N H2SO4 was added to improve the efficiency of acid extraction. The resulting sample was extracted into 4 mL ethyl acetate by vigorous vortexing for 90 seconds. The organic phase was separated and evaporated to dryness under a stream of nitrogen. […] Samples were analyzed by GC (1 μL injection with a 20:1 split ratio) using helium as the carrier gas at a flowrate of 1.5 mL/min and the following temperature profile: initial 90° C. for 3 min; ramp at 15° C./min to 170° C.; ramp at 20° C./min to 300° C. and hold for 8 min. […]

| Molecule | DHB productivity [1] | Kcat, app [2] [s⁻¹] | condensation of methyl ketones with formyl-CoA [3] |
| --- | --- | --- | --- |
| B1 | decent DHB productivity | – | – |
| B2 | decent DHB productivity | 6.8 | could catalyze the condensation of tested ketones |
